According to publication PMC12375970 (2025):

Molecular target: importin-alpha2 (mImpα2) (Mus musculus, UniProt P52293)
Assay: MST

B1: TAF8 NLS NLS (peptide)
chain: PVKKPKIRRKKSLS
B1 was tested, and the Kd was ~1000 nM.
